T1: MgGalT7 (Magallana gigas, UniProt Z9LX56G651)
T1 sequence (Z9LX56G651 34-312): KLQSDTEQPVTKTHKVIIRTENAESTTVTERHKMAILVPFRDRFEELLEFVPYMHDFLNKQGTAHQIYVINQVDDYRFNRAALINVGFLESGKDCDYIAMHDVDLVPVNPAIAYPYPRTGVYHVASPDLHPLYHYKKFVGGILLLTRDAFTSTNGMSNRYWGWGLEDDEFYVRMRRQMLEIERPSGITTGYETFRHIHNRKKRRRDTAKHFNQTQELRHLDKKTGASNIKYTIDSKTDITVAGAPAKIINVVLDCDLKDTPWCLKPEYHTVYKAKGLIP

B1: MgUGE (Magallana gigas) (protein)
chain: MGDSCILVTGGAGFVGSHSVIELIEAGYSVVVMDNLANASMESIKRVEEITGKSIPSYSVDLLDKPALSDLFNKHKFTSVIHFAGLKAVGESCQLPLLYYKNNVGGTVNLLEVMKEKGVKNLIFSSSATVYGSPQYLPIDEKHPVGGCTNPYGKTKYFIEEILRDLHKAEPDWNIIMLRYFNPVGAHKSGKIGEDPQGIPNNLMPFIAQVAVGKRAELSVYGSDYDTPDGTGVRDYIHVVDLAQGHVAAQKKIEKKCGCKVYNLGTGKGYSVIEMAKAFEEASGKPIPFKKVDRRAGDVASVYGNADLAKEELGWSASRDLKQMCEDTWRWQSSNPNGFRK
notes: forward primer encodes N-terminus MGDSCIL

Tests used:
MgGalT7 = target: T1, MgGalT7; assay: coupled galactosylation with MgUGE, HPLC-ESI-MS; assay type: biochemical; conditions: acceptor 10 mM; 15 mM UDP-glucose converted to UDP-galactose by MgUGE, 1 mM MnCl2, 50 mM Tris-HCl pH 8.0, 37 °C, 24 h
purified protein = substrate: O=c1ccn([C@@H]2O[C@H](COP(=O)(O)OP(=O)(O)O[C@H]3O[C@H](CO)[C@H](O)[C@H](O)[C@H]3O)[C@@H](O)[C@H]2O)c(=O)[nH]1; assay: purified protein; assay type: biochemical, Magallana gigas; conditions: 50 mM Tris-HCl pH 8.0, 22 °C, UDP-galactose 10 µM to 2 mM

| Molecule | coupled galactosylation with MgUGE, HPLC-ESI-MS (MgGalT7) | Km (purified protein) | kcat (purified protein) |
| --- | --- | --- | --- |
| O=[N+]([O-])c1ccc(O[C@H]2OC[C@@H](O)[C@H](O)[C@H]2O)cc1 [pNP-xylose] | (MgGalT7), allowing the galactosylation of the model substrate para-nitrophenol xylose (pNP-xylose) | – | – |
| B1 | – | 1600 ± 100 µM | 2.23 ± 0.2 s⁻¹ |

Source: publication PMC6032241, “UDP-Glucose 4-Epimerase and β-1,4-Galactosyltransferase from the Oyster Magallana gigas as Valuable Biocatalysts for the Production of Galactosylated Products” (International Journal of Molecular Sciences, 2018)
